From patent US20230312689A1 (NATIONAL UNIVERSITY CORPORATION KUMAMOTO UNIVERSITY, published 2023) come the findings set out here.

Assay [1] concerns the target SARS-CoV-2 spike protein, European type SD614G (SARS-CoV-2, UniProt P0DTC2 14-1273). Kind of assay: cell-based or functional assay.
Assay [2] addresses spike protein of SARS-CoV-2 mutant strain B.1.351 (SARS-CoV-2). Kind of assay: cell-based or functional assay.

B1: CSSA10-121 (antibody, V domains shown)
VH: EVQLVESGGGLIQPGGSLRLSCAASGLTVSRNYMSWVRQAPGRGLEWVSLIYSGGSTYYADSVKGRFTISRDSSKNTLYLQMNSLRAEDTAVYYCARPIVGARAGMDVWGQGTTVTVSS
VL: DIRMTQSPSSLSASVGDRVTITCQASQDISNYLNWYQQKPGKAPKLLIYDASNLETGVPSRFSGSGSGTDFTFTISSLQPEDIATYYCQQYDNLPVTFGQGTRLEIK
B1: in assay [1], the “neutralizing activity (IC50 value), pseudovirus, 293F/ACE2/TMPRSS2 cells” value was 0.018 µg/mL; the “neutralizing activity (IC50 value), pseudovirus, Caco-2 cells” value was found to be 0.015 µg/mL; the “neutralizing activity (IC50 value), pseudovirus, Calu-3 cells” value is 0.12 µg/mL.

B2: CTMA9-105 (antibody, V domains shown)
VH: EVQLVESGGGLIQPGGSLRLSCAASGITVSSNYMSWVRQAPGKGLEWVSLIYSGGSTYYADSVKGRFTISRDNSKNTLYLQMNSLRAEDTAVYYCARDLEEAGGMDVWGQGTTVTVSS
VL: DIVMTQSPGTLSLSPGERATLSCRASQSVPSIYLAWYQQRPGQAPRLLIYGASSRATGIPDRFSGSGSGTDFTLTISRLEPEDFAVYYCQQYGSSPGTFGQGTKVEIK
Regarding B2, in assay [1], the “neutralizing activity (IC50 value), pseudovirus, 293F/ACE2/TMPRSS2 cells” value was found to be 0.0035 µg/mL; the “neutralizing activity (IC50 value), pseudovirus, Caco-2 cells” value was determined as 0.00092 µg/mL; the “neutralizing activity (IC50 value), pseudovirus, Calu-3 cells” value amounted to 0.0019 µg/mL. Also, in assay [2], the “IC50, pseudovirus neutralization, 293FT/DSP/ACE2/TMPRSS2 cells” value was 0.021 µg/mL.
